Reference: the RNAGym collection of RNA variant scans (doi:10.1073/pnas.2313332121)

B1: TPR t1 (parent)
chain: GACCAAUCUGCCCUCAGAGCUCGAGAACAUCUUCGGAUGCAGAGGAGGCAGGCUUCGGUGGCGCGAUAGCGCCAACGUCCUCAACCUCCAAUGCAUCCCACCACAUGAUGAUGCCUGAAGAGCCUUGGUUUUUUG

Variants of: B1
Test: polymerase ribozyme fitness, log enrichment relative to wild type (log ratio); higher = more active; in vitro selection for triplet polymerase activity
Method in brief: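 One round of in vitro selection, in triplicate, was applied to PCR-built, transcribed mutant libraries of each subunit of a heterodimeric triplet polymerase ribozyme. The steps were annealing with a biotinylated primer, partner subunit and triplets, incubation frozen at −7 °C, gel excision of extended constructs, streptavidin-bead capture and RT-PCR. Fitness is the logarithm, base 2, of genotype enrichment over wild-type enrichment from inverse-variance-weighted replicate averages of Illumina-sequenced inputs and outputs, keeping genotypes with ≥10 input reads and ≥1 read per output.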

| Variant | polymerase ribozyme fitness (log ratio) |
| --- | --- |
| C114A G117U | -6.19 |
| C124A G128U | 0.625 |
| G113C U133A | -2.13 |
| U112C U132A | 1.65 |
| C115G G128U | -5 |
| G120A | 0.66 |
| G120C | 1.05 |
| G120U | 0.195 |
| G122U | 0.322 |
| G122A | -0.49 |
| G122C | -2.37 |
| G110U A121C | -2.17 |
| C123U C124A | 2.14 |
| U112G G128C | -2.91 |
| G117U G120A | -2.24 |
| G110C A118U | -4.26 |
| G117C A121C | -3.29 |
| G107A A108G G120A C124A | -3.55 |
| G113A G135U | -2.05 |
| C114U C123U | -1.92 |
| G122A U130A | -0.49 |
| A119U C123A | -0.124 |
| A119U C123U | 2.17 |
| C115U C124G | 0.35 |

| Variant | polymerase ribozyme fitness (log ratio) |
| --- | --- |
| A119U G127U | -2.01 |
| G117A U130A | -2.15 |
| A111G U132A | 0.715 |
| U109A U132C | -5.12 |
| G110C C115U | -4.71 |
| C114G G135U | -2.93 |
| U129A G135C | -0.497 |
| G113C C115U | -3.35 |
| G110A G117U | -4.78 |
| C114U U129A | -3.98 |
| C114U U129G | -4.52 |
| C115U G128A | -2.99 |
| A121U G135C | 2.99 |
| G117C U132A | -3.52 |
| A119U A121U | 1.77 |
| C115A C124U | 0.564 |
| G110C G120U | -4.38 |
| G120C G128C | -2.04 |
| G110A G113A | -3.95 |
| G107U A111U | -4.03 |
| G117U A118U U130C | -3.28 |
| G110A C124G G128C | -3.19 |
| A111G C114G C123U | -6.41 |
| C115A G120U | -0.0245 |

| Variant | polymerase ribozyme fitness (log ratio) |
| --- | --- |
| G113U U133C | -2.64 |
| U129G | -1.1 |
| U129C | -0.185 |
| U129A | -1.11 |
| C114U U126A | -3.35 |
| U112G U125C | 0.47 |
| U109C U132A | -4.52 |
| G113A G122A | -2.77 |
| G113C G128U | -4.01 |
| C123G U133A | 2.19 |
| G113A C115U | -3.6 |
| G127A U130C | -0.727 |
| G117C G120C | -3.46 |
| G113A U134G G135U | -1.24 |
| C114A G128C | -3.78 |
| C114A G128U | -3.33 |
| G110U G117C | -5.42 |
| U112A G128U | -0.362 |
| A118U G128A | -1.29 |
| G117C U131A | -4.01 |
| G117A U133A | -1.2 |
| G110C G117U | -5.43 |
| G107U G113A | -3.27 |
| A108G G113A | -2.47 |

| Variant | polymerase ribozyme fitness (log ratio) |
| --- | --- |
| G110C U125C | -2.68 |
| U116C G127A U130G | -4.14 |
| G117A G120A | -2.42 |
| U109G A118G | -5.14 |
| C114U G117C | -7.14 |
| G110C U129G | -5.19 |
| G120A G122U | 0.476 |
| G113C G127C | -3.73 |
| U109G | -4.35 |
| U109C | -2.41 |
| U109A | -5.11 |
| C123G U131A | 0.367 |
| G120U C123G | 1.47 |
| G117C G122U | -3.99 |
| G127C G128U U133A | -1.83 |
| G117A U125A | -3.14 |
| G110A G122A C123U | -2.1 |
| A111C U131A | -1.12 |
| U109C A118U | -4.34 |
| A111U G113C C115G | -7.15 |
| G113U U129A | -3.53 |
| C123G U129A | -1.13 |
| G110C G128U | -4.78 |
| A108U G120U | -5.29 |

| Variant | polymerase ribozyme fitness (log ratio) |
| --- | --- |
| U112A C115A | 1.16 |
| G113U C114A | -4.29 |
| G120U G135C | 1.16 |
| U112A G135A | 2.15 |
| C124U U126A | 1.37 |
| A111U C123U G127C | -4.76 |
| U130G U131A | -0.66 |
| G117U A119U C123U | -0.29 |
| G110A G127C | -1.94 |
| C114G G127A | -4.97 |
| A119U U132A | -0.132 |
| C115U U131A | -0.58 |
| G122U C124G U130A | 0.942 |
| C124A U125A | 1.57 |
| G127U G128A | -2.19 |
| C115U G117A | -1.61 |
| G127A U129A | -1.26 |
| G120A G127C | -0.483 |
| G120A U132C | 0.977 |
| U112C U129C | 0.894 |
| G107U C114U | -3.8 |
| G113C G120U | -3.23 |
| G107C G110A G117A U130C | -6.86 |
| U109A G120C | -4 |

| Variant | polymerase ribozyme fitness (log ratio) |
| --- | --- |
| C115A G122A | -0.767 |
| G110A A118G | -1.12 |
| G113U G122A | -2.45 |
| C115A A119U G122U | -0.198 |
| G117C A121G U130C | 0.325 |
| G107A G122A | -5.18 |
| A111C U126C | 0.272 |
| C115U U116C | -2.06 |
| U112A U130C | 1.38 |
| U112A U130G | -0.266 |
| U112C C123A | -0.0765 |
| G117A G128C | -3.45 |
| G117A C123A | -0.382 |
| C115U U133A | -0.794 |
| G110A U112C G117A | -4.79 |
| A118U U133A | -1.21 |
| G117A A121C | -0.623 |
| U133A | -0.252 |
| U133C | 0.332 |
| U133G | -0.279 |
| G113A A119U U126A | -3.89 |
| G110C U133A | -4.65 |
| U129G U130A | -2.04 |
| G113C C124U G127C | -3.7 |

| Variant | polymerase ribozyme fitness (log ratio) |
| --- | --- |
| U112G G127C U130C | -0.498 |
| C123G U125C | 1.61 |
| G113A G128A | -2.92 |
| C114G C124A | -1.15 |
| C115G U126C U132A | -4.83 |
| C123A G135A | 0.422 |
| G113U U126A | -4.71 |
| G110U G135C | -1.54 |
| G110U C123U | -1.39 |
| U116A U125A | -3.4 |
| G113C G122U | -1.42 |
| G113C G122A | -3.11 |
| A111C G122U C123U U130C | -0.737 |
| U112A G117A G120U C124G | -1.37 |
| A118G | -0.226 |
| A118C | -2.45 |
| A118U | 0.282 |
| U106G G117C | -1.59 |
| A118U G120U | -0.245 |
| C115A U126C | -0.397 |
| C115U U126G | -3.36 |
| U116G G128U | -4.55 |
| G117U U129A | -3.5 |
